# Patent publication US20200385482A1 (Dana-Farber, published 2020)
# Legend:
# [1] = target: T1, human PD-L1 (hPD-L1) expressed on transfected 300.19 cells (human, UniProt Q9NZQ7 19-290); test: FACS, hPD-L1 300.19 cells, assay 1, Ab 1 ug/ml
# T1 construct: whole, on cells; also called B7H1
# Description: (§1) Binding analysis of huPD-L1 antibodies were performed using PD-L1-expressing cells. […] GF1538 and GF1757 antibodies were used as controls: GF1538 is a humanized Ab against hPD-L1, and GF1757 is a humanized Ab against hPD-L2. The secondary antibody utilized was PE-goat anti-human IgG. All values represent mean fluorescence intensity (GMFI), as detected by FACs analysis.
# [2] = target: T1, human PD-L1 (hPD-L1) expressed on …; test: FACS, hPD-L1 300.19 cells, assay 2, Ab 1 ug/ml
# Description: as §1
# [3] = target: T1, human PD-L1 (hPD-L1) expressed on …; test: FACS, hPD-L1 300.19 cells, assay 1, Ab 0.1 ug/ml
# Description: as §1
# [4] = target: T1, human PD-L1 (hPD-L1) expressed on …; test: FACS, hPD-L1 300.19 cells, assay 2, Ab 0.1 ug/ml
# Description: as §1
# [5] = target: T1, human PD-L1 (hPD-L1) expressed on …; test: FACS, hPD-L1 300.19 cells, assay 1, Ab 0.01 ug/ml
# Description: as §1
# [6] = target: T1, human PD-L1 (hPD-L1) expressed on …; test: FACS, hPD-L1 300.19 cells, assay 2, Ab 0.01 ug/ml
# Description: as §1
# [7] = target: T1, human PD-L1 (hPD-L1) expressed on …; test: FACS, hPD-L1 300.19 cells, assay 1, Ab approx 10 ug/ml
# Description: as §1
# [8] = target: T1, human PD-L1 (hPD-L1) expressed on …; test: FACS, hPD-L1 300.19 cells, assay 2, Ab approx 10 ug/ml
# Description: as §1
# [9] = target: T1, human PD-L1 (hPD-L1) expressed on …; test: competition FACS, hPD-L1 300.19 cells, signal = bound hPD-1-mIgG2a, Ab 1 ug/ml
# Description: (§2) A competitive FACS analysis was performed to characterize the inhibition of hPD1 binding to hPD-L1 by the soluble huPD-L1 antibodies of the present invention. […] In this assay, 50,000 cells expressing hPD-L1 were pre-incubated with the huPD-L1 or control antibodies for 30 minutes at the following concentrations: 10 μg/ml, 1 μg/ml, 0.1 μg/ml and 0.01 μg/ml. […] After 30 minutes of incubation, the cells were washed twice and then analyzed by FACS. MFI values from Table 20 are used to generate a percent inhibition of hPD1 binding with hPD-L1+ cells for FIG. 4.
# [10] = target: T1, human PD-L1 (hPD-L1) expressed on …; test: competition FACS, hPD-L1 300.19 cells, signal = bound hPD-1-mIgG2a, Ab 0.1 ug/ml
# Description: as §2
# [11] = target: T1, human PD-L1 (hPD-L1) expressed on …; test: competition FACS, hPD-L1 300.19 cells, signal = bound hPD-1-mIgG2a, Ab 0.01 ug/ml
# Description: as §2
# [12] = target: T1, human PD-L1 (hPD-L1) expressed on …; test: competition FACS, hPD-L1 300.19 cells, signal = bound hPD-1-mIgG2a, Ab approx 10 ug/ml
# Description: as §2
# T1 sequence (Q9NZQ7 19-290): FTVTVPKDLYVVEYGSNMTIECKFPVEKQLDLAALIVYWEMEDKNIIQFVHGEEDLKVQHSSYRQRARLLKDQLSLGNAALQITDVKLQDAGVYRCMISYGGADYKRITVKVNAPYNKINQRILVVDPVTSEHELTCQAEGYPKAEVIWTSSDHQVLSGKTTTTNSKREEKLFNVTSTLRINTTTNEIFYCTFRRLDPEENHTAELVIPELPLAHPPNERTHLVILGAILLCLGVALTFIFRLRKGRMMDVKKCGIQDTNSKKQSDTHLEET
Binder,Cells PE-A Mean [1],Cells PE-A Mean [2],Cells PE-A Mean [3],Cells PE-A Mean [4],Cells PE-A Mean [5],Cells PE-A Mean [6],Cells PE-A Mean [7],Cells PE-A Mean [8],Cells PE-A Mean (bound hPD-1-mIgG2a) [9],Cells PE-A Mean (bound hPD-1-mIgG2a) [10],Cells PE-A Mean (bound hPD-1-mIgG2a) [11],Cells PE-A Mean (bound hPD-1-mIgG2a) [12]
"Ab-50 (antibody, V domains shown, also called huPD-L1 Ab # 50) VH: QVQLVQSGGEVKKPGASVKVSCKASGYTLSSHGITWVRQAPGQGLEWMGWISAHNGHASNAQKVEDRVTMTTDTSTNTAYMELRSLTADDTAVYYCARVHAALYYGMDVWGQGTLVTVSS VL: QSVLTQPPSVSVAPGQTARITCGGNNIGSKGVHWYQQKPGQAPVLVVYDDSDRPSGIPERFSGSNSGNTATLTISRVEAGDEADYYCQVWDSSSDHWVFGGGTKLTVL",42100 MFI,63400 MFI,15100 MFI,28700 MFI,2690 MFI,5200 MFI,49400 MFI,69600 MFI,156 MFI,2800 MFI,12500 MFI,207 MFI
"Ab-52 (antibody, V domains shown, also called huPD-L1 Ab # 52) VH: QVQLQESGGGVVQPGRSLRLSCSASGFTFSRHGMHWVRQAPGKGLEWVAVISHDGSVKYYADSMKGRFSISRDNSNNTLYLQMDSLRADDTAVYYCARGLSYQVSGWFDPWGQGTLVTVSS VL: NFMLTQPHSVSESPGKTVTISCTRSSGSIASNYVQWYQQRPGSAPTTVIYEDNQRPSGVPDRFSGSIDSSSNSASLTISGLKTEDEADYYCQSYDSTTPSVFGGGTKLTVL",21400 MFI,34900 MFI,5610 MFI,14700 MFI,1070 MFI,2690 MFI,28400 MFI,37200 MFI,2070 MFI,6750 MFI,11900 MFI,380 MFI
"Ab-14 (antibody, V domains shown, also called huPD-L1 Ab # 14) VH: QVQLVQSGAEVKKPGASVKVSCKASGYTFTSYGISWVRQAPGQGLEWMGWISAYNGNTNYAQKLQGRVTMTTDTSTSTAYMELRSLRSDDTAVYYCARALPSGTILVGGWFDPWGQGTLVTVSS VL: NFMLTQPHSVSESPGKTVTISCTRSSGNIASNYVQWYQQRPGSAPTTVIYEDNQRPSGVPDRFSGSIDSSSNSASLTISGLKTEDEADYYCQSYDSSNLWVFGGGTKLTVL",23300 MFI,53200 MFI,8100 MFI,17700 MFI,1650 MFI,3700 MFI,41500 MFI,77900 MFI,12000 MFI,14900 MFI,15800 MFI,696 MFI
"Ab-42 (antibody, V domains shown, also called huPD-L1 Ab # 42; mAb42) VH: QVQLVQSGAEVKKPGSSVKVSCKASGGTFSSYAISWVRQAPGQGLEWMGGIIPIFGTANYAQKFQGRVTITADKSTSTAYMELSSLRSEDTAVYYCARGRQMFGAGIDFWGPGTLVTVSS VL: NFMLTQPHSVSESPGKTVTISCTRSSGSIDSNYVQWYQQRPGSAPTTVIYEDNQRPSGVPDRFSGSIDSSSNSASLTISGLKTEDEADYYCQSYDSNNRHVIFGGGTKLTVL",40900 MFI,72100 MFI,14900 MFI,49400 MFI,2080 MFI,11600 MFI,53600 MFI,76800 MFI,142 MFI,3140 MFI,11800 MFI,139 MFI
"Ab-31 (antibody, V domains shown, also called huPD-L1 Ab # 31) VH: QVQLVQSGAEVKKPGATVKVSCKVFGDTFRGLYIHWVRQAPGQGLEWMGGIIPIFGTANYAQKFQGRVTITTDESTSTAYMELSSLRSEDTAVYYCASGLRWGIWGWFDPWGQGTLVTVSS VL: EIVLTQSPATLSLSPGERATLSCRASQSIGNSLAWYQQKPGQAPRLLMYGASSRATGIPDRFSGSGAGTDFTLTISSLEPEDFATYYCQQHTIPTFSFGPGTKVEVK",44200 MFI,71000 MFI,12500 MFI,37700 MFI,2830 MFI,6830 MFI,53800 MFI,76400 MFI,623 MFI,7930 MFI,11900 MFI,157 MFI
"Ab-55 (antibody, V domains shown, also called huPD-L1 Ab # 55) VH: QVQLVQSGAEVKKPGASVKVSCKASGYTFTSYGISWVRQAPGQGLEWMGWTSPHNGLTAFAQILEGRVTMTTDTSTNTAYMELRNLTFDDTAVYFCAKVHPVFSYALDVWGQGTLVTVSS VL: NFMLTQPHSVSESPGKTVTISCTRSSGSIASNYVQWYQQRPGSSPTTVIYEDNQRPSGVPDRFSGSIDTSSNSASLTISGLKTKDEADYYCQSYDGITVIFGGGTKLTVL",9650 MFI,26500 MFI,2300 MFI,8910 MFI,543 MFI,1760 MFI,24400 MFI,42400 MFI,3620 MFI,9140 MFI,12900 MFI,150 MFI
"Ab-30 (antibody, V domains shown, also called huPD-L1 Ab # 30) VH: QVQLVQSGGSVVRPGESLRLSCVASGFIFDNYDMSWVRQVPGKGLEWVSRVNWNGGSTTYADAVKGRFTISRDNTKNSLYLQMNNLRAEDTAVYYCVREFVGAYDLWGQGTTVTVSS VL: QSALTQPASVSGSPGQSITISCTGTSSDVGGYNYVSWYQQHPGKAPKLMIYDVSNRPSGVSNRFSGSKSGNTASLTISGLQAEDEADYYCSSYTSSTLPFGGGTKLTVL",37500 MFI,61200 MFI,17500 MFI,39100 MFI,3510 MFI,7720 MFI,47600 MFI,67300 MFI,661 MFI,4780 MFI,11600 MFI,244 MFI
